This is an account of results in patent US12091391B2, “Reagents and methods for bioorthogonal labeling of biomolecules in living cells” (Oregon State University, priority 2015, dated 2024).

Where a chain is given by its changes, count along the chain named. In names and notes the source's numbering stands.

This experiment in a line: UP50 characterization of select synthetases (GFP fluorescence versus Tet-v3.0 concentration). It counts as cell-based, E. coli. The note with it: fluorescence normalized to optical density, amino acid Tet-v3.0 (methyl). The text has this:
The UP50 value is a measure of amino acid concentration at which cells containing a given synthetase produces half of the maximum amount of unnatural protein containing the amino acid of interest. In this way the UP50 is dependent both on the synthetase and amino acid of interest. This value is obtained by measuring the fluorescence of produced GFP at various concentrations of amino acids and fitting measured values to the curve:
UP is the measured fluorescence, [AA] is the amino acid concentration, and UPmax is the maximum protein produced. The methodology for obtaining UP50 and UPmax values is described below.
Non-inducing media starter cultures containing Tcn (25 μg/mL) and Kn (50 μg/mL) were grown overnight (37° C., 18 hrs). Starter cultures consisted of E. coli DH10B transformed with a pBK plasmid containing the synthetases of interest (R2-40, R2-74, and R2-84) and tRNA, as well as a pALS plasmid containing an amber codon interrupted GFP gene under control of an araBAD promoter. Starters were used to inoculate (30 μL) autoinducing media (3 mL) containing Tcn (25 μg/mL), Kn (50 μg/mL), and Tet-v3.0 at various concentrations. Tet-v3.0 concentrations were varied from 0.005 mM to 1 mM with duplicates for each concentration. As a control, media was inoculated in duplicate containing no amino acid. To aid in dissolution, 30 μL of N,N-dimethyl formamide (DMF) was added to the Tet-v3.0 prior to addition to media.
The fluorescence and optical density of the media was measured after 24, 36, and 48 hrs. The fluorescence normalized to the optical density was plotted across Tet-v3.0 concentrations and used to calculate the UP50 and UPmax for individual synthetases (see FIG. 16. FIG. 16 compares UP50 titration curves for three Tet-v3.0-methyl incorporating synthetases: R2-40, R2-74, and R2-84. UP50 and UPmax values are obtained from the fit of the curves. The R2-74 synthetase was moved into eukaryotic plasmids for protein expression.

B1: R2-40: M. barkeri PylRS synthetase hit for Tet-v3.0: N311G, C313A, K296R (protein, UniProt Q46E77 1-419, looked up, variant N311G C313A K296R)
Pyrrolysine--tRNA ligase: MDKKPLDVLISATGLWMSRTGTLHKIKHYEVSRSKIYIEMACGDHLVVNNSRSCRTARAFRHHKYRKTCKRCRVSDEDINNFLTRSTEGKTSVKVKVVSAPKVKKAMPKSVSRAPKPLENPVSAKASTDTSRSVPSPAKSTPNSPVPTSAPAPSLTRSQLDRVEALLSPEDKISLNIAKPFRELESELVTRRKNDFQRLYTNDREDYLGKLERDITKFFVDRDFLEIKSPILIPAEYVERMGINNDTELSKQIFRVDKNLCLRPMLAPTLYNYLRKLDRILPDPIKIFEVGPCYRRESDGKEHLEEFTMVGFAQMGSGCTRENLESLIKEFLDYLEIDFEIVGDSCMVYGDTLDIMHGDLELSSAVVGPVPLDREWGIDKPWIGAGFGLERLLKVMHGFKNIKRASRSESYYNGISTNL
On to B1, for which the UPmax is recorded as 540.

B2: R2-84: M. barkeri PylRS synthetase hit for Tet-v3.0: L270G, N311G, C313A, R263C (protein, UniProt Q46E77 1-419, looked up, variant L270G N311G C313A R263C)
Pyrrolysine--tRNA ligase: B1 Pyrrolysine--tRNA ligase with R263C, L270G, R296K
B2 returned a UPmax of 517.

B3: R2-74: M. barkeri PylRS synthetase hit for Tet-v3.0: L270G, N311G, C313S (protein, UniProt Q46E77 1-419, looked up, variant L270G N311G C313S)
Pyrrolysine--tRNA ligase: B1 Pyrrolysine--tRNA ligase with L270G, R296K, A313S
On to B3, for which the UPmax was found to be 400.
